Source: US20260242735A1 (UNIVERSIT T BASEL, published 2026)

B1: Refmab #2 (antibody, V domains shown)
VH: QVQLVQSGAEVKKPGSSVKVSCKASGGTFSDYAISWVRQAPGQGLEWMGRIIPILGVADYAQKFQGRVTITADKSTRTAYMELSSLRSEDTAVYYCARNWADAFDIWGQGTMVTVSS
VL: DIQLTQSPSSLSASVGDRVTITCRASQGISSVLAWYQQKPGKAPKLLIYDASSLESGVPSRFSGSGSGTDFTLTISSLQPEDFATYYCQQFDSSITFGQGTKLEIK
notes: The alanine scan used IgG or Fab
B2: Refmab #3 (antibody, V domains shown)
VH: QVQLVQSGAEVKKPGSSVKVSCKASGYTFTDYNMHWVRQAPGQGLEWIGYIYPYNGGTGYNQKFKSKATITADESTNTAYMELSSLRSEDTAVYYCARGRPAMDYWGQGTLVTVSS
VL: DIQMTQSPSSLSASVGDRVTITCRASESVDNYGISFMNWFQQKPGKAPKLLIYAASNQGSGVPSRFSGSGSGTDFTLTISSLQPDDFATYYCQQSKEVPWTFGQGTKVEIK
notes: as for B1
B3: Refmab #4 (antibody, V domains shown)
VH: QVQLVQSGAEVKKPGESVKVSCKASGYTFTNYGMNWVKQAPGQGLEWMGWINTYTGEPTYADKFQGRVTMTTDTSTSTAYMEIRNLGGDDTAVYYCARWSWSDGYYVYFDYWGQGTSVTVSS
VL: DIVMTQSPDSLTVSLGERTTINCKSSQSVLDSSTNKNSLAWYQQKPGQPPKLLLSWASTRESGIPDRFSGSGSGTDFTLTIDSPQPEDSATYYCQQSAHFPITFGQGTRLEIK
notes: In the alanine scan antibodies were used as IgG or Fab
B4: Refmab #4 (antibody, V domains shown)
VH: B3 VH
VL: B3 VL
notes: as for B1
B5: Refmab #1 (antibody, V domains shown)
VH: EVQLVQSGAEVKKPGSSVKVSCKASGYTITDSNIHWVRQAPGQSLEWIGYIYPYNGGTDYNQKFKNRATLTVDNPTNTAYMELSSLRSEDTAFYYCVNGNPWLAYWGQGTLVTVSS
VL: DIQLTQSPSTLSASVGDRVTITCRASESLDNYGIRFLTWFQQKPGKAPKLLMYAASNQGSGVPSRFSGSGSGTEFTLTISSLQPDDFATYYCQQTKEVPWSFGQGTKVEVK
notes: In the alanine scan antibodies were used as IgG or Fab; also called hP67.6
B6: Refmab #1 (antibody, V domains shown)
VH: B5 VH
VL: B5 VL
notes: The alanine scan used IgG or Fab; also called hP67.6

Tests used:
Test in all cases: alanine scan, flow cytometry, HEK293-T;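 further: antibody binding to each alanine-substituted CD33 mutant expressed transiently in HEK293-T, read as fluorescence minus background, mean of duplicates, relative to wild-type CD33 set as 100%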
human CD33 T299A = human CD33 T299A (human, UniProt P20138 18-364)
human CD33 G249A = human CD33 G249A (human, UniProt P20138 18-364)
human CD33 E252A = human CD33 E252A (human, UniProt P20138 18-364)
human CD33 P301A = human CD33 P301A (human, UniProt P20138 18-364)
human CD33 G260A = human CD33 G260A (human, UniProt P20138 18-364)
human CD33 Q311A = human CD33 Q311A (human, UniProt P20138 18-364)
human CD33 L273A = human CD33 L273A (human, UniProt P20138 18-364)
human CD33 V257A = human CD33 V257A (human, UniProt P20138 18-364)
human CD33 H285A = human CD33 H285A (human, UniProt P20138 18-364)
human CD33 T292A = human CD33 T292A (human, UniProt P20138 18-364)
human CD33 H310A = human CD33 H310A (human, UniProt P20138 18-364)
human CD33 R287A = human CD33 R287A (human, UniProt P20138 18-364)
human CD33 A255S = human CD33 A255S (human, UniProt P20138 18-364)
human CD33 H300A = human CD33 H300A (human, UniProt P20138 18-364)
human CD33 A265S = human CD33 A265S (human, UniProt P20138 18-364)
human CD33 A289S = human CD33 A289S (human, UniProt P20138 18-364)
human CD33 A269S = human CD33 A269S (human, UniProt P20138 18-364)
human CD33 S248A = human CD33 S248A (human, UniProt P20138 18-364)
human CD33 I278A = human CD33 I278A (human, UniProt P20138 18-364)
human CD33 V196A = human CD33 V196A (human, UniProt P20138 18-364)
human CD33 I199A = human CD33 I199A (human, UniProt P20138 18-364)
human CD33 I242A = human CD33 I242A (human, UniProt P20138 18-364)
human CD33 N237A = human CD33 N237A (human, UniProt P20138 18-364)
human CD33 A219S = human CD33 A219S (human, UniProt P20138 18-364)
human CD33 E224A = human CD33 E224A (human, UniProt P20138 18-364)
human CD33 Y233A = human CD33 Y233A (human, UniProt P20138 18-364)
human CD33 T208A = human CD33 T208A (human, UniProt P20138 18-364)
human CD33 L210A = human CD33 L210A (human, UniProt P20138 18-364)
human CD33 T211A = human CD33 T211A (human, UniProt P20138 18-364)
human CD33 A183S = human CD33 A183S (human, UniProt P20138 18-364)
human CD33 G188A = human CD33 G188A (human, UniProt P20138 18-364)
human CD33 F216A = human CD33 F216A (human, UniProt P20138 18-364)
human CD33 P174A = human CD33 P174A (human, UniProt P20138 18-364)
human CD33 R225A = human CD33 R225A (human, UniProt P20138 18-364)
human CD33 L229A = human CD33 L229A (human, UniProt P20138 18-364)
human CD33 V231A = human CD33 V231A (human, UniProt P20138 18-364)

human CD33 H300A, sequence (P20138 18-364 H300A limits assumed): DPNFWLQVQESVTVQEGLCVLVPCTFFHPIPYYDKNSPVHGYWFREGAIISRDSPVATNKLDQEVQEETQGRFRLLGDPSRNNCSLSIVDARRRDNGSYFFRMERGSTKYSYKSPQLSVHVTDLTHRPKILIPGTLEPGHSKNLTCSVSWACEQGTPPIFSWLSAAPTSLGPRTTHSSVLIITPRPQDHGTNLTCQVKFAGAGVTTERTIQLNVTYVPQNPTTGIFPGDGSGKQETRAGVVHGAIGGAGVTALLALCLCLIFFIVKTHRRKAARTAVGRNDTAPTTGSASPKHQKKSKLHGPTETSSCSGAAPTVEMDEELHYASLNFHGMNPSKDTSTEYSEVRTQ
human CD33 G260A, sequence (P20138 18-364 G260A limits assumed): as the sequence (P20138 18-364 H300A limits assumed) above, with G243A, A283H counted along it
human CD33 T292A, sequence (P20138 18-364 T292A limits assumed): as the sequence (P20138 18-364 H300A limits assumed) above, with T275A, A283H counted along it
human CD33 R287A, sequence (P20138 18-364 R287A limits assumed): as the sequence (P20138 18-364 H300A limits assumed) above, with R270A, A283H counted along it
human CD33 H285A, sequence (P20138 18-364 H285A limits assumed): as the sequence (P20138 18-364 H300A limits assumed) above, with H268A, A283H counted along it
human CD33 G249A, sequence (P20138 18-364 G249A limits assumed): as the sequence (P20138 18-364 H300A limits assumed) above, with G232A, A283H counted along it
human CD33 H310A, sequence (P20138 18-364 H310A limits assumed): as the sequence (P20138 18-364 H300A limits assumed) above, with A283H, H293A counted along it
human CD33 A265S, sequence (P20138 18-364 A265S limits assumed): as the sequence (P20138 18-364 H300A limits assumed) above, with A248S, A283H counted along it
human CD33 P301A, sequence (P20138 18-364 P301A limits assumed): as the sequence (P20138 18-364 H300A limits assumed) above, with A283H, P284A counted along it
human CD33 A269S, sequence (P20138 18-364 A269S limits assumed): as the sequence (P20138 18-364 H300A limits assumed) above, with A252S, A283H counted along it
human CD33 S248A, sequence (P20138 18-364 S248A limits assumed): as the sequence (P20138 18-364 H300A limits assumed) above, with S231A, A283H counted along it
human CD33 I278A, sequence (P20138 18-364 I278A limits assumed): as the sequence (P20138 18-364 H300A limits assumed) above, with I261A, A283H counted along it
human CD33 Q311A, sequence (P20138 18-364 Q311A limits assumed): as the sequence (P20138 18-364 H300A limits assumed) above, with A283H, Q294A counted along it
human CD33 A289S, sequence (P20138 18-364 A289S limits assumed): as the sequence (P20138 18-364 H300A limits assumed) above, with A272S, A283H counted along it

Row | Binder | Mean % WT Binding (human CD33 T299A) [% WT binding] | Mean % WT Binding (human CD33 G249A) [% WT binding] | Mean % WT Binding (human CD33 E252A) [% WT binding] | Mean % WT Binding (human CD33 P301A) [% WT binding] | Mean % WT Binding (human CD33 G260A) [% WT binding] | Mean % WT Binding (human CD33 Q311A) [% WT binding] | Mean % WT Binding (human CD33 L273A) [% WT binding] | Mean % WT Binding (human CD33 V257A) [% WT binding] | Mean % WT Binding (human CD33 H285A) [% WT binding] | Mean % WT Binding (human CD33 T292A) [% WT binding] | Mean % WT Binding (human CD33 H310A) [% WT binding] | Mean % WT Binding (human CD33 R287A) [% WT binding] | Mean % WT Binding (human CD33 A255S) [% WT binding] | Mean % WT Binding (human CD33 H300A) [% WT binding] | Mean % WT Binding (human CD33 A265S) [% WT binding] | Mean % WT Binding (human CD33 A289S) [% WT binding] | Mean % WT Binding (human CD33 A269S) [% WT binding] | Mean % WT Binding (human CD33 S248A) [% WT binding] | Mean % WT Binding (human CD33 I278A) [% WT binding] | Mean % WT Binding (human CD33 V196A) [%] | other results
1 | B1 | 96.3 | 127 | 116 | 91.8 | 105 | 99.5 | 117 | 108 | 109 | 94.2 | 112 | 110 | 109 | 98.9 | 104 | 111 | 111 | 93.6 | 106 |  | 
2 | B2 | 85.6 | 132 | 96.3 | 93.9 | 140 | 124 | 125 | 89 | 94.3 | 99.6 | 101 | 112 | 97.7 | 68.3 | 92.4 | 82.8 | 97.4 | 133 | 100 |  | 
3 | B3 |  |  |  |  |  |  |  |  |  |  |  |  |  |  |  |  |  |  |  | 102 | Mean % WT Binding (human CD33 I199A): 114%; Mean % WT Binding (human CD33 I242A): 104%; Mean % WT Binding (human CD33 N237A): 72.9%; Mean % WT Binding (human CD33 A219S): 112%; Mean % WT Binding (human CD33 E224A): 107%; Mean % WT Binding (human CD33 Y233A): 98.5%; Mean % WT Binding (human CD33 T208A): 108%; Mean % WT Binding (human CD33 L210A): 92.3%; Mean % WT Binding (human CD33 T211A): 79.4%; Mean % WT Binding (human CD33 A183S): 103%; Mean % WT Binding (human CD33 G188A): 91.3%; Mean % WT Binding (human CD33 F216A): 71.6%; Mean % WT Binding (human CD33 P174A): 118%; Mean % WT Binding (human CD33 R225A): 108%; Mean % WT Binding (human CD33 L229A): 89.1%
4 | B4 | 92.9 | 111 | 115 | 97.9 | 106 | 102 | 115 | 110 | 95.2 | 100 | 94.3 | 65.3 | 113 | 95.2 | 126 | 95 | 83.6 | 99.7 | 116 |  | 
5 | B5 |  |  |  |  |  |  |  |  |  |  |  |  |  |  |  |  |  |  |  | 83.9 | Mean % WT Binding (human CD33 I199A): 98.5%; Mean % WT Binding (human CD33 I242A): 77.9%; Mean % WT Binding (human CD33 N237A): 98.7%; Mean % WT Binding (human CD33 V231A): 100%; Mean % WT Binding (human CD33 A219S): 104%; Mean % WT Binding (human CD33 E224A): 95.4%; Mean % WT Binding (human CD33 Y233A): 115%; Mean % WT Binding (human CD33 T208A): 101%; Mean % WT Binding (human CD33 L210A): 93%; Mean % WT Binding (human CD33 T211A): 82.4%; Mean % WT Binding (human CD33 A183S): 85.4%; Mean % WT Binding (human CD33 G188A): 102%; Mean % WT Binding (human CD33 F216A): 87.3%; Mean % WT Binding (human CD33 P174A): 90.9%; Mean % WT Binding (human CD33 R225A): 97.8%; Mean % WT Binding (human CD33 L229A): 93.1%
6 | B6 | 90.3 | 89.2 | 98.8 | 101 | 81.9 | 90.4 | 110 | 102 | 100 | 89.5 | 97.4 | 94.7 | 98.8 | 76.5 | 93.2 | 97.1 | 107 | 88.4 | 99.1 |  | 
